Patent US20240025965A1 (UNIVERSITEIT TWENTE, published 2024)
Where no end group is shown, it is not given here. membrane = cellular membrane (peptide-display support, peptide attached at its C-terminus via a stable linker); glass slide = glass slide (microarray support, peptide conjugated at its N-terminus via a PEG linker); stable linker = not defined here; PEG linker = not defined here; linker = not defined here; PEG = not defined here

Assays:
rhIntegrin α11β1 = molecular target: T1, rhIntegrin α11β1 (human, UniProt Q9UKX5 23-1141; P05556 21-728, limits assumed); test: peptide microarray: peptide fixed by its N-terminus through a PEG linker, incubated with α11β1 receptor (10 µg/ml), anti-ITGA11 antibody and fluorescent secondary antibody, signal of the antibodies alone subtracted
T1 construct: Bought from R&D Systems; also called α11β1 receptor; ITGA11 receptor
Method: (§1) Peptide microarray was prepared by conjugating peptides at their N-terminal to a glass slide using a PEG linker. […] For the binding studies, the peptide array was blocked with 3% BSA in TBST for 2 hours. Then the array slide was washed 5 times in TB ST and subsequently incubated with the target receptor (α11β1, 10 μg/ml dissolved in PBS) for 1 hour at 37° C. The slides were washed with TBST and then incubated with primary antibody (1 μg/ml) against ITGA11 for 1 hour at 37° C. Then slides were washed and incubated with fluorescent dye labeled secondary antibodies for 30 minutes. The slides were washed with TBST and water and then dried and scanned with a microarray scanner to detect binding of the peptides. The enlightened spots were analyzed using ImageJ software. To determine the unspecific binding, a peptide array was incubated with only primary and secondary antibodies without the receptor incubation step. Then, the signal of unspecific binding was subtracted from the total binding to calculate specific binding.

[1] = molecular target: T2, α5β1 human recombinant protein (human, UniProt P08648 42-995; P05556 21-728); test: peptide microarray incubated with α5β1, anti-α5 detection
T2 construct: Bought from R&D Systems; also called α5β1 receptor; integrin α5β1
Method: as §1, with “(α5β1,” for “(α11β1,”, “ITGA5” for “ITGA11”
To find out the amino acids responsible for the peptide binding and the most efficient binding peptides, peptide microarrays were developed with alanine replacement and shorter peptides. In addition, a peptide having the sequence […] (SEQ ID NO:11) (AV3-Cys) was developed. For AV3 (RYYRITY (SEQ ID NO:8)), the peptide microarray was incubated with […] receptor, which was captured by anti-α5 and then fluorescent dye labeled secondary antibody. […] Replacement of T6 induced unspecific binding of the peptide to the incubating antibodies (FIG. 13).

[2] = molecular target: T2, α5β1 human recombinant protein; test: overlapping peptides on membrane incubated with 5 µg/ml α5β1; bound receptor transferred and detected with anti-alpha5 antibody
Method: Peptides were attached to their c-terminal site using stable linker. […] The peptide-displaying […] membrane was soaked in methanol for 1 minute and rinsed in Tris-buffered saline (TBS) and washed three times. Then, the membrane was blocked with 3% BSA in 0.05% TWEEN®-20 containing TBS (TBST) for 3 hours at room temperature. Then, the membrane was washed for 10 minutes with TB ST and incubated with 5 μg/ml α5β1 human recombinant protein (R&D systems) in 3% BSA in TB ST for 1 hour at room temperature and then overnight at 4° C. Subsequently, the membrane was washed three times with TB ST. Thereafter, the bound receptor to the membrane was transferred to the PVDF membrane. To achieve this, first, the PVDF membrane was soaked in methanol for 1 minute and then blocked with 5% skimmed fat milk for 2 hours. Then, the membrane was incubated with primary anti-alpha5 integrin antibody (Sigma-Aldrich) for overnight in 5% skimmed milk. The membrane was washed three times with TBST and then incubated with anti-rabbit-HRP secondary antibody (Dako), washed and developed with chemiluminescence detection kit.
The domains 9 and 10 of FN were chosen to design peptides, as these domains were reported to be responsible for binding to the α5β1 receptor, as shown with the docking experiments (Nagae et al, 2012 J. Cell Biol. 131-140). The interaction studies were performed against human recombinant integrin α5β1 receptor and the bound proteins were transferred to another membrane and ITGA5 was detected with antibodies. Many sequences appeared to bind to the α5β1 receptor from human and mouse domains, the strongest binding was obtained with 2 sequences from human FN-III domain 10 as follows.

T1 sequence (Q9UKX5 23-1141 limits assumed, chain 1 of 2): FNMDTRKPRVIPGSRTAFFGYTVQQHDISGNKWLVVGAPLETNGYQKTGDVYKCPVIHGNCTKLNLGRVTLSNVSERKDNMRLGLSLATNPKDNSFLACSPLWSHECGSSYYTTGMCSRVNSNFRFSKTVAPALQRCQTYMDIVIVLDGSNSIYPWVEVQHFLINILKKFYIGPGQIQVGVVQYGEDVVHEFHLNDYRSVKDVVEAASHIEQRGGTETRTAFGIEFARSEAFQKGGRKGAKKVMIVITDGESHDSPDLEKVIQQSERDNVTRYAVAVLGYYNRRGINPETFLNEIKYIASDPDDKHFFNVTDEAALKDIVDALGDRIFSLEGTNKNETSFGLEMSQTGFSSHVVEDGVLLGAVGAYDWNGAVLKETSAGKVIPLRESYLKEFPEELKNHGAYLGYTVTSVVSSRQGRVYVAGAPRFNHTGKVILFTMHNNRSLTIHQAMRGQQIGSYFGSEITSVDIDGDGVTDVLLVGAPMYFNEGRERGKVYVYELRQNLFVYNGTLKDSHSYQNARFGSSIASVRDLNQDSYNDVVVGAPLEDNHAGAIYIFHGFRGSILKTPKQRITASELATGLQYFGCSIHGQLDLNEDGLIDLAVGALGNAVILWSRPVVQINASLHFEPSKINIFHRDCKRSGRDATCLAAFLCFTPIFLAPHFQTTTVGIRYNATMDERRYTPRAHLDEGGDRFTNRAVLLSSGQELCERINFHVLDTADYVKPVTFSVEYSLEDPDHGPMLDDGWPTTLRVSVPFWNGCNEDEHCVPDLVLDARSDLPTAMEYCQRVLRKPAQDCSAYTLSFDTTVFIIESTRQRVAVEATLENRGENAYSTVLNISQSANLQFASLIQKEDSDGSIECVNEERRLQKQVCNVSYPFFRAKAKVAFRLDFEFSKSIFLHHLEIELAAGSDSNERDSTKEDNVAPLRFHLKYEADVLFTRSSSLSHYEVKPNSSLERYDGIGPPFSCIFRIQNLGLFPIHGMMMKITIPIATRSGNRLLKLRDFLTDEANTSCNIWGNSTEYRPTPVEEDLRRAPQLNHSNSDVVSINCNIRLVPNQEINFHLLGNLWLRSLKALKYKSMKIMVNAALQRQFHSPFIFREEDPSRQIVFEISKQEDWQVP
T1 sequence (P05556 21-728 limits assumed, chain 2 of 2): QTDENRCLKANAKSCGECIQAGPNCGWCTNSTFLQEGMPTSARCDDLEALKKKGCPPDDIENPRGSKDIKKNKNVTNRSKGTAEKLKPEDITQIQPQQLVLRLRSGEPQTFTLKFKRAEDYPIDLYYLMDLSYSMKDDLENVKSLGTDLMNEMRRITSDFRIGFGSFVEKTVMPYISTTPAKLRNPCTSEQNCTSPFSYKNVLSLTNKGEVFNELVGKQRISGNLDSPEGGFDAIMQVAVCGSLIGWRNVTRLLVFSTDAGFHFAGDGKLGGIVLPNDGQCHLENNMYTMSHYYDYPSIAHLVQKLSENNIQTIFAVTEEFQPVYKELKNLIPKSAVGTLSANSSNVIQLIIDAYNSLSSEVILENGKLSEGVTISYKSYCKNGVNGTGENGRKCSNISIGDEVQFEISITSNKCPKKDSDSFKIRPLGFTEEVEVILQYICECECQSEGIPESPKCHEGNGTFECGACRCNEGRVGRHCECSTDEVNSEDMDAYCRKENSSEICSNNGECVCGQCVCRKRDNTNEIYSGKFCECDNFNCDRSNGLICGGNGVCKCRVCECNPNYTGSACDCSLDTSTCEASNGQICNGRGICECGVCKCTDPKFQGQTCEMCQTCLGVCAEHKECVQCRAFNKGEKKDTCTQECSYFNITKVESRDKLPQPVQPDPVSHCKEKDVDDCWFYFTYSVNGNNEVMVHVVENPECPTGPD
T2 sequence (P08648 42-995 limits assumed, chain 1 of 2): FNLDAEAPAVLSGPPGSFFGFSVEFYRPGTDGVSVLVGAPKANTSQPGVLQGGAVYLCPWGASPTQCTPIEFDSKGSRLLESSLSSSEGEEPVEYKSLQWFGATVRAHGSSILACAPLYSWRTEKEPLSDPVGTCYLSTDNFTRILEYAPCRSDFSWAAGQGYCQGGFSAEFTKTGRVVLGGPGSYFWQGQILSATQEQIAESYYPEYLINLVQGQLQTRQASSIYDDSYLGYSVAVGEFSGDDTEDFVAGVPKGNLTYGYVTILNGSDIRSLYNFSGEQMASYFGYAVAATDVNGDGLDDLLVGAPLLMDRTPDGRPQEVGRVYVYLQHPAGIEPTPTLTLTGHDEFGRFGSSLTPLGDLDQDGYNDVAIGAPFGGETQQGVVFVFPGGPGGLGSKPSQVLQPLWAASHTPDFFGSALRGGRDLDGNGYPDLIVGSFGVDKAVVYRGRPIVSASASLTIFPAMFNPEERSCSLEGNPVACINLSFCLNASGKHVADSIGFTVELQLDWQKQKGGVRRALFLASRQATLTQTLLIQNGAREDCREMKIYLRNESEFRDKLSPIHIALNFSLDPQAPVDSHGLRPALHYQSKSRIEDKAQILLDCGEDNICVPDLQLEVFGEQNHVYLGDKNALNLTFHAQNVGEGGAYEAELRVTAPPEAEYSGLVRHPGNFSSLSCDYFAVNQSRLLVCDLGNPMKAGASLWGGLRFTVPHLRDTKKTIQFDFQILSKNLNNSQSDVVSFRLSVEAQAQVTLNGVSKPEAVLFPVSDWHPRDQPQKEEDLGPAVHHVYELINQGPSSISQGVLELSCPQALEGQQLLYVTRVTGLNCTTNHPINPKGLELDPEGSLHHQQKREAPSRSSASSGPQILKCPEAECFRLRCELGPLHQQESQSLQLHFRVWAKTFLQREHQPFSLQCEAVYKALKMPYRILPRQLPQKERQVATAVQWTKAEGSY
T2 sequence (P05556 21-728 limits assumed, chain 2 of 2): as the sequence (P05556 21-728 limits assumed, chain 2 of 2) above

| Binder | binding result (rhIntegrin α11β1) | other results |
| --- | --- | --- |
| {glass slide-PEG}-RYARITY (reading uncertain) [AV3 with Y3 replaced by alanine] |  | binding result [1]: no binding |
| {glass slide-PEG}-RYYRITA (reading uncertain, also called AV3 with Y7 replaced by alanine) |  | binding result [1]: binds |
| {glass slide-PEG}-RYYAITY (reading uncertain, also called AV3 with R4 replaced by alanine) |  | binding result [1]: binds |
| {glass slide-PEG}-AYYRITY (reading uncertain, also called AV3 with R1 replaced by alanine) |  | binding result [1]: binds |
| {glass slide-PEG}-RAYRITY (reading uncertain, also called AV3 with Y2 replaced by alanine) |  | binding result [1]: binds |
| {glass slide-PEG}-RYYRATY (reading uncertain, also called AV3 with I5 replaced by alanine) |  | binding result [1]: binds |
| TTVRYYRITYGE-{stable linker-membrane} (reading uncertain) |  | binding result [2]: binds |
| GDSPASSKPISI-{linker-membrane} (reading uncertain) |  | binding result [2]: binds |
| {glass slide-PEG}-LTEWLRWFNS (reading uncertain) | binds |  |
| {glass slide-PEG}-GLTEWLRWFNS (reading uncertain) | binds |  |
| TNLLVRYSPVKN-{stable linker-membrane} (reading uncertain) |  | binding result [2]: binds |
| {glass slide-PEG linker}-SGLTEWLRW (reading uncertain) | binds |  |
| {glass slide-PEG linker}-SGLTEWLRWFN (reading uncertain) | binds |  |
| {glass slide-PEG linker}-SGLTEWLRWF (reading uncertain) | binds |  |
| {glass slide-PEG}-AGLTEWLRWFNS (reading uncertain, Alanine at position 1 of AXI-I) | binds |  |
| {glass slide-PEG linker}-SGLTEWLRWFNA (reading uncertain, Alanine at position 12 of AXI-I) | binds |  |
| {glass slide-PEG linker}-SGLTEWARWFNS (reading uncertain, Alanine at position 7 of AXI-I) | binds |  |
| {glass slide-PEG linker}-SGLTEALRWFNS (reading uncertain, Alanine at position 6 of AXI-I) | binds |  |
| {glass slide-PEG}-SALTEWLRWFNS (reading uncertain, Alanine at position 2 of AXI-I) | binds |  |
| {glass slide-PEG linker}-SGLTEWLRAFNS (reading uncertain, Alanine at position 9 of AXI-I) | binds |  |
| {glass slide-PEG linker}-SGLTEWLAWFNS (reading uncertain, Alanine at position 8 of AXI-I) | binds |  |
| {glass slide-PEG}-SGLTAWLRWFNS (reading uncertain, Alanine at position 5 of AXI-I) | binds |  |
| {glass slide-PEG}-SGLAEWLRWFNS (reading uncertain, Alanine at position 4 of AXI-I) | binds |  |
| SIELTNLLVRYS-{stable linker-membrane} (reading uncertain) |  | binding result [2]: binds |

Further lines, with some results ahead:

| binding result (rhIntegrin α11β1) | Binder | other results |
| --- | --- | --- |
| no binding | {glass slide-PEG linker}-SGLTEW (reading uncertain, chain-length variant of AXI-I (positions 1-6); fixed on the array by its N-terminus through a PEG linker) |  |
| binds | {glass slide-PEG}-SGATEWLRWFNS (reading uncertain, alanine-scan variant of AXI-I; fixed on the array by its N-terminus through a PEG linker; also called AXI-I with L3 replaced by alanine) |  |
| binds | {glass slide-PEG}-RWFNS (reading uncertain, chain-length variant of AXI-I (positions 8-12); fixed on the array by its N-terminus through a PEG linker) |  |
| no binding | {glass slide-PEG}-SGLTE (reading uncertain, chain-length variant of AXI-I (positions 1-5); fixed on the array by its N-terminus through a PEG linker) |  |
| binds | {glass slide-PEG}-GLTEWLRWFN (reading uncertain) |  |
| binds | {glass slide-PEG linker}-WLRWFNS (reading uncertain) |  |
| binds | {glass slide-PEG}-LTEWLRWF (reading uncertain) |  |
| binds | {glass slide-PEG}-EWLRWFNS (reading uncertain) |  |
| binds | {glass slide-PEG linker}-TEWLRWFNS (reading uncertain) |  |
| no binding | {glass slide-PEG linker}-SGLTEWLR (reading uncertain, chain-length variant of AXI-I (positions 1-8); fixed on the array by its N-terminus through a PEG linker) |  |
| binds | {glass slide-PEG}-LRWFNS (reading uncertain) |  |
